Test results reported in publication PMC4489622.
pKd: −log10 of the molar value. Where “and” joins values, the source holds several entries; their conditions need not be identical. Equal entries are not always repeated. Blank lines part the entries; values can stand above or below the substance they belong to.

Tests used:
[1] = target: HpRF, N-terminal Rossmann fold domain of HpDprA (residues 1-212) (Helicobacter pylori strain J99) (UniProt B5ZAA1); assay: SPR; BIAcore 3000; the same protein amine-coupled on a CM5 chip (~1000 RU) and injected; 25 °C, 10 mM HEPES pH 7.4, 150 mM NaCl, 1 mM EDTA, 0.05% P-20, 20 µl/min; kon from 1:1 Langmuir fit, koff from the main phase of a biphasic dissociation, Kd = koff/kon
[2] = target: HpRF, N-terminal Rossmann fold domain of HpDprA (residues 1-212) (Helicobacter pylori strain J99) (UniProt B5ZAA1); assay: cross-linking; glutaraldehyde on ice, SDS-10% PAGE, silver staining; HpDprA 5 µM with 0.01% to 0.5% glutaraldehyde at 4 °C for 15 min; conditions for HpRF in the legend of Fig B in S1 File
[3] = target: HpRF, N-terminal Rossmann fold domain of HpDprA (residues 1-212) (Helicobacter pylori strain J99) (UniProt B5ZAA1); assay: SEC; Superdex 75 HR 10/300, 1X PBS, 0.3 ml/min, 500 µl injected, protein at 2 mg/ml, apparent mass from standards
[4] = target: HpDML1, C-terminal DML-1 like domain of HpDprA (residues 213-266) (Helicobacter pylori strain J99) (UniProt B5ZAA1); assay: SPR; BIAcore 3000; the same protein amine-coupled on a CM5 chip (~1000 RU) and injected; 25 °C, 10 mM HEPES pH 7.4, 150 mM NaCl, 1 mM EDTA, 0.05% P-20, 20 µl/min; kon from 1:1 Langmuir fit, koff from the main phase of a biphasic dissociation, Kd = koff/kon
[5] = target: HpDML1, C-terminal DML-1 like domain of HpDprA (residues 213-266) (Helicobacter pylori strain J99) (UniProt B5ZAA1); assay: SEC; Superdex 75 HR 10/300, 1X PBS, 0.3 ml/min, 500 µl injected, protein at 8 mg/ml, apparent mass from standards
[6] = target: HpDML1, C-terminal DML-1 like domain of HpDprA (residues 213-266) (Helicobacter pylori strain J99) (UniProt B5ZAA1); assay: cross-linking; glutaraldehyde on ice, SDS-12% PAGE, silver staining; HpDML1 at 140 µM, longer incubation with the cross-linker
[7] = target: Helicobacter pylori DNA processing protein A (HpDprA), full length, strain J99 (Helicobacter pylori strain J99) (UniProt B5ZAA1); assay: SPR; BIAcore 3000; the same protein amine-coupled on a CM5 chip (~1000 RU) and injected; 25 °C, 10 mM HEPES pH 7.4, 150 mM NaCl, 1 mM EDTA, 0.05% P-20, 20 µl/min; kon from 1:1 Langmuir fit, koff from the main phase of a biphasic dissociation, Kd = koff/kon
[8] = target: Helicobacter pylori DNA processing protein A (HpDprA), full length, strain J99 (Helicobacter pylori strain J99) (UniProt B5ZAA1); assay: cross-linking; glutaraldehyde on ice, SDS-10% PAGE, silver staining; HpDprA 5 µM with 0.01% to 0.5% glutaraldehyde at 4 °C for 15 min; conditions for HpRF in the legend of Fig B in S1 File
[9] = target: Helicobacter pylori DNA processing protein A (HpDprA), full length, strain J99 (Helicobacter pylori strain J99) (UniProt B5ZAA1); assay: SEC; Superdex 75 HR 10/300, 1X PBS, 0.3 ml/min, 500 µl injected, protein at 2 mg/ml, apparent mass from standards

pKd [1]: 7.64 | stoichiometry N [2]: 2 | stoichiometry N [3]: 2
Substance: HpRF, N-terminal Rossmann fold domain of HpDprA (residues 1-212) (from UniProt B5ZAA1 1-212) (domain or fragment)

pKd [4]: 5.63 | stoichiometry N [5]: 2 | stoichiometry N [6]: 2
Substance: HpDML1, C-terminal DML-1 like domain of HpDprA (residues 213-266) (from UniProt B5ZAA1 213-266) (domain or fragment)

pKd [7]: 7.65 | stoichiometry N [8]: 2 and 3 | stoichiometry N [9]: 2
Substance: Helicobacter pylori DNA processing protein A (HpDprA), full length, strain J99 (from UniProt B5ZAA1 1-266) (natural protein)
